Patent US20240044046A1 (BIOATLA, published 2024)

T1: B7H4 on T47D cells (human, UniProt Q7Z7D3 25-282)
T1 sequence (looked up): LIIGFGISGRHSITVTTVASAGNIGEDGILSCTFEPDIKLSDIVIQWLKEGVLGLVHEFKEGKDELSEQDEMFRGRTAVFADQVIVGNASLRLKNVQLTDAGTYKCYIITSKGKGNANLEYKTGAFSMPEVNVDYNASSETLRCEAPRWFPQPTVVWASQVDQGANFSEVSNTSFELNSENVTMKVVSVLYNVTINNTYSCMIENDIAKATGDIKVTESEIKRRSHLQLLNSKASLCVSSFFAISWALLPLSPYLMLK

T2: CD73 on MCF-7 cells (human, UniProt P21589 27-549)
T2 sequence (looked up): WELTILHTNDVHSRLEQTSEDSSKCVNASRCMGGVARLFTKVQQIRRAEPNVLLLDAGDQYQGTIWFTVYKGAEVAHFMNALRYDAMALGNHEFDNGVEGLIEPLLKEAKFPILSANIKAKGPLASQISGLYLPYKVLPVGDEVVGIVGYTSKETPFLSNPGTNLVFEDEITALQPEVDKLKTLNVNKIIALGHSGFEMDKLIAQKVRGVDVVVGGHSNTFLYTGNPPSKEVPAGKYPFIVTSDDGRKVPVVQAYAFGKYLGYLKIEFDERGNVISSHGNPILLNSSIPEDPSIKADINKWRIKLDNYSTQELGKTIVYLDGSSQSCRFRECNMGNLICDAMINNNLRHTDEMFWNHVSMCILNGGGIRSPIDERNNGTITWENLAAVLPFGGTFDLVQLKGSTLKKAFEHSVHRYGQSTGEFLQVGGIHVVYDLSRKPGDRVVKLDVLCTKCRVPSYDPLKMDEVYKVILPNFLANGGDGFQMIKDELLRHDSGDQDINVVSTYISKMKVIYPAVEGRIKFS


Columns and labels:
[1] = molecular target: T1, B7H4 on T47D cells; test: cell-based or functional assay
[2] = molecular target: T2, CD73 on MCF-7 cells; test: cell-based or functional assay

EC50 (ng/ml), ADCC reporter bioassay, Palbociclib Isethionate-treated T47D cells, pH 6.0 [1] [ng/ml] | EC50 (ng/ml), ADCC reporter bioassay, Palbociclib Isethionate-treated T47D cells, pH 7.4 [1] [ng/ml] | EC50 (ng/ml), ADCC reporter bioassay, untreated T47D cells, pH 6.0 [1] [ng/ml] | EC50 (ng/ml), ADCC reporter bioassay, untreated T47D cells, pH 7.4 [1] [ng/ml] | pH 7.4/pH 6.0 ratio of ADCC EC50, Palbociclib Isethionate-treated T47D cells [1] [ratio] | pH 7.4/pH 6.0 ratio of ADCC EC50, untreated T47D cells [1] [ratio] | EC50 (ng/mL), ADCC reporter bioassay, Palbociclib Isethionate-treated MCF-7 cells, pH6.0 [2] [ng/mL] | EC50 (ng/mL), ADCC reporter bioassay, Palbociclib Isethionate-treated MCF-7 cells, pH7.4 [2] [ng/mL] | EC50 (ng/mL), ADCC reporter bioassay, untreated MCF-7 cells, pH6.0 [2] [ng/mL] | EC50 (ng/mL), ADCC reporter bioassay, untreated MCF-7 cells, pH7.4 [2] [ng/mL] | pH7.4/pH6.0 ratio of ADCC EC50, Palbociclib Isethionate-treated MCF-7 cells [2] [ratio] | pH7.4/pH6.0 ratio of ADCC EC50, untreated MCF-7 cells [2] [ratio] | Binder
2.97 | 10.2 | 7.55 | 11.7 | 3.41 | 1.54 | – | – | – | – | – | – | BA-091-00-2E2 (antibody, V domains shown) VH: QVQLQQSDAELVKPGASVKISCKVSGYTFTDRTIHWMKQRPEQGLEWIGSIYPRDGSTKYNEKFKDKATLTADKSSSTAYMQLNSLTSEDSAVYFCARSVGYAFDYWGQGTTLTVSS VL: DIVLTQSPASLAVSLGQRATISCRVSEGIDNYGFTFIHWYQQKPGQPPKLLIYRASNLQSGIPARFSGSGSRTDFTLTIYPVETDDVATYYCQQSDKDPFTFGSGTKLEIK
27 | 149 | 98.1 | 429 | 5.53 | 4.37 | – | – | – | – | – | – | BA-091-02-04-04 (antibody, V domains shown) VH: EVQLVQSGAEVKKPGATVKISCKVSGYTFTDRTIHWIRQSPSRGLEWLGSIYPRDGSTKYNEKFKDRVTITADKSTSTAYMELSSLRSEDTAVYYCARSVGYADDYWGQGTLVTVSS VL: DVVMTQSPLSLPVTLGQPASISCRVSEGIDNYGFTFIHWYQQKPGKAPKLLIYRASNLQSGIPARFSGSGSGTEFTLTISSLQSEDFAVYYCQQSDKDPFTFGQGTKVEIK
– | – | – | – | – | – | 1.26 | 1.16 | 2.17 | 1.07 | 0.92 | 0.49 | BAP147-WT (antibody, V domains shown) VH: EVQLLESGGGLVQPGGSLRLSCAASGFTFSSYAYSWVRQAPGKGLEWVSAISGSGGRTYYADSVKGRFTISRDNSKNTLYLQMNSLRAEDTAVYYCARLGYGRVDEWGRGTLVTVSS VL: QSVLTQPPSASGTPGQRVTISCSGSLSNIGRNPVNWYQQLPGTAPKLLIYLDNLRLSGVPDRFSGSKSGTSASLAISGLQSEDEADYYCATWDDSHPGWTFGGGTKLTVL
– | – | – | – | – | – | 28.9 | 134 | 44.2 | 106 | 4.62 | 2.39 | BAP147-LC-L051D (antibody, V domains shown) VH: EVQLLESGGGLVQPGGSLRLSCAASGFTFSSYAYSWVRQAPGKGLEWVSAISGSGGRTYYADSVKGRFTISRDNSKNTLYLQMNSLRAEDTAVYYCARLGYGRVDEWGRGTLVTVSS VL: QSVLTQPPSASGTPGQRVTISCSGSLSNIGRNPVNWYQQLPGTAPKLLIYDDNLRLSGVPDRFSGSKSGTSASLAISGLQSEDEADYYCATWDDSHPGWTFGGGTKLTVL
– | – | – | – | – | – | 55.9 | 545 | 173 | 100 | 9.74 | 0.577 | BAP147-HC-Y101E (antibody, V domains shown) VH: EVQLLESGGGLVQPGGSLRLSCAASGFTFSSYAYSWVRQAPGKGLEWVSAISGSGGRTYYADSVKGRFTISRDNSKNTLYLQMNSLRAEDTAVYYCARLGEGRVDEWGRGTLVTVSS VL: QSVLTQPPSASGTPGQRVTISCSGSLSNIGRNPVNWYQQLPGTAPKLLIYLDNLRLSGVPDRFSGSKSGTSASLAISGLQSEDEADYYCATWDDSHPGWTFGGGTKLTVL
